What was measured:
[1] = biological target: Rab1/Ypt1 (UniProt P01123)
[2] = biological target: Rab5 (UniProt P51148)
Chain of UniProt P51148 (P51148 whole entry): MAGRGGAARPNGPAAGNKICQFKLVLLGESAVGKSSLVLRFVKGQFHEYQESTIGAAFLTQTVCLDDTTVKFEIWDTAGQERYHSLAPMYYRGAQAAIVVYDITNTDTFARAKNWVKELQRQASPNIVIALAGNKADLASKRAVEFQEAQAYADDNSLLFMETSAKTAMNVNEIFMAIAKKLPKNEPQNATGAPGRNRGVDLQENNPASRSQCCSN

Chain of UniProt P01123 (P01123 whole entry): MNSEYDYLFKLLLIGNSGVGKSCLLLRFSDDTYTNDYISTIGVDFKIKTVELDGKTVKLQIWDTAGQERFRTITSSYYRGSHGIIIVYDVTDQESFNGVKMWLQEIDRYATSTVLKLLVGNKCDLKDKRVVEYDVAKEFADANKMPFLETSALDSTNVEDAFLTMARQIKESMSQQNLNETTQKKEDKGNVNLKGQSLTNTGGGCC

## TRAPPI-complex (from UniProt P36149 1-193)
[1]
  catalytic efficiency (kcat/Km) of TRAPP-stimulated GDP-release from Rab1/Ypt1 (release of Mant-GDP): 130000 M⁻¹ s⁻¹

## Rabex5 (enzyme)
[2]
  catalytic efficiency (kcat/Km) of Rabex-mediated nucleotide exchange (release of Mant-GDP from Rab5): 25000 M⁻¹ s⁻¹

## TRAPP Bet3 E192A/D193A mutant (from UniProt P36149 1-193) (complex)
[1]
  GEF activity towards Rab1 (release of Mant-GDP), reduction against wild type TRAPP: 4 fold

— article PMC3919270
